Assay results: article PMC6312923 (Life Science Alliance, 2018)

B1: Cdt2^PIP-3A: Cdt2 with I709, Y712, and F713 all mutated to alanine (protein, UniProt Q9NZJ0 1-730, looked up, variant I709A Y712A F713A)
Denticleless protein homolog: MLFNSVLRQPQLGVLRNGWSSQYPLQSLLTGYQCSGNDEHTSYGETGVPVPPFGCTFSSAPNMEHVLAVANEEGFVRLYNTESQSFRKKCFKEWMAHWNAVFDLAWVPGELKLVTAAGDQTAKFWDVKAGELIGTCKGHQCSLKSVAFSKFEKAVFCTGGRDGNIMVWDTRCNKKDGFYRQVNQISGAHNTSDKQTPSKPKKKQNSKGLAPSVDFQQSVTVVLFQDENTLVSAGAVDGIIKVWDLRKNYTAYRQEPIASKSFLYPGSSTRKLGYSSLILDSTGSTLFANCTDDNIYMFNMTGLKTSPVAIFNGHQNSTFYVKSSLSPDDQFLVSGSSDEAAYIWKVSTPWQPPTVLLGHSQEVTSVCWCPSDFTKIATCSDDNTLKIWRLNRGLEEKPGGDKLSTVGWASQKKKESRPGLVTVTSSQSTPAKAPRAKCNPSNSSPSSAACAPSCAGDLPLPSNTPTFSIKTSPAKARSPINRRGSVSSVSPKPPSSFKMSIRNWVTRTPSSSPPITPPASETKIMSPRKALIPVSQKSSQAEACSESRNRVKRRLDSSCLESVKQKCVKSCNCVTELDGQVENLHLDLCCLAGNQEDLSKDSLGPTKSSKIEGAGTSISEPPSPISPYASESCGTLPLPLRPCGEGSEMVGKENSSPENKNWLLAMAAKRKAENPSPRSPSSQTPNSRRQSGKKLPSPVTITPSSMRKACTAAHRKSQEDFCGPEHSTEL
modifications: FLAG tag
notes: Cdt2 with I709, Y712, and F713 all mutated to alanine

Columns and labels:
Assay type in all cases: cell-based, human
PCNA = test: Co-immunoprecipitation of PCNA with FLAG-tagged Cdt2 constructs; conditions: for interaction with PCNA (reverse IP, anti-Myc): Myc-PCNA co-transfected, HEK293; for interaction with PCNA (anti-FLAG IP): cross-linked cells, 3FLAG fusions, no UV
Text: Before cell lysate preparation, cells were cross-linked.
(§1) Figure 3. […] HEK293 cells were transfected with plasmids expressing the indicated Cdt2 fused to a C-terminal FLAG tag, cross-linked, and precipitated with anti-FLAG antibodies (arrows). […] The bands in the blank lanes for Cul4A blotting correspond to the cross-reacting bands to pre-stained marker. […] HEK293 cells were transfected with the indicated plasmids and treated as in A. * indicates nonspecific bands derived from IgGs. (C) A schematic drawing of the Cdt2 domain structure highlighting the C-terminal PIP box and a sequence alignment of PIP boxes in various organisms. The alanine-changed PIP box mutant of Cdt2 was shown (PIP-3A) together with Cdt1 PIP box. (D) HEK293 cells were transfected with Cdt2^WT or PIP box mutant (Cdt2^PIP-3A) C-terminally fused to a FLAG tag, treated as in B, and Cdt2 was precipitated with anti-FLAG resin.
Control or Cdt2-FLAG expressing 293 cells that were UV irradiated (50 J/m^2), or not UV irradiated, or in the middle S phase (5 h after release from aphidicolon arrest) were fixed with 0.02% formaldehyde for 10 min, lysed using 0.1% Triton X-100-containing modified cytoskeleton (mCSK) buffer (10 mM Pipes, pH 7.9, 100 mM NaCl, 300 mM sucrose, 0.1% [vol/vol] Triton X-100, 1 mM phenylmethylsulfonyl fluoride, 10 mM β-glycerophosphate, 1 mMNa3VO4, 10 mM NaF), and then sonicated. After centrifugation (120,000g, Beckman Type 45Ti rotor, for 20 min at 4°C), the supernatants were mixed with anti-FLAG antibody-conjugated magnetic beads (M8823; Sigma-Aldrich) for 1 h at 4°C to obtain immunoprecipitates. The precipitate was washed with ice-cold 0.1% Triton X-100 containing mCSK buffer and subsequently suspended in SDS sample buffer.

Cdt1 = test: Co-immunoprecipitation of Cdt1 with FLAG-tagged Cdt2; conditions: anti-FLAG IP, HEK293, with or without UV irradiation
Text: as §1
Next, we examined the interaction of CRL4^Cdt2 ligase with its target protein Cdt1, using HEK293 cells alone and cells transfected with Cdt2^WT or Cdt2^PIP-3A, with or without UV irradiation. […]

PCNA mono-ubiquitination = test: Mono-ubiquitination of PCNA; conditions: in comparison with Cdt2^wt-expressing cells, Fig S7B
Text: Figure S7. Cdt2 PIP box is important for CRL4^Cdt2 activity in U2OS cells. (A) U2OS stable cells expressing Cdt2^WT or Cdt2^PIP-3A. U2OS cells were transfected with expression vectors for Cdt2^WT-FLAG or Cdt2^PIP-3A-FLAG, and isolated stable clones were verified by immunofluorescent analysis and Western blot analysis. Frequency of expressing cells for each construct was shown (%). (B) Poly-ubiquitination assay with U2OS stable cells. U2OS cells and Cdt2^WT-3FLAG or Cdt2^PIP-3A-3FLAG expressing stable U2OS cells were treated with MG132 for 3 h or not (−), and whole-cell extracts were prepared for Western blotting. (C) Cells were transfected with siCdt2 or control siLuc for 72 h, irradiated with UV (+, 5 J/m^2) or not (−), and collected 1h later for Western blotting. Relative levels of Cdt1 were shown, UV (−) level set as 1.0 (average of two independent experiments).

[1] = tested on: HEK293 cells, UV-irradiated sites; test: Recruitment of FLAG-Cdt2 to UV-irradiated (XPA) sites in HEK293 cells; conditions: stable HEK293 cells, XPA-positive spots
Description: Figure 6. The Cdt2 PIP box is important for its recruitment to DNA damage sites and replication foci and for poly-ubiquitination activity. (A) HEK293 and stable Cdt2^WT or Cdt2^PIP-3A cells were locally UV irradiated, and stained for XPA and FLAG (Cdt2). XPA-positive spots were examined for FLAG signal, and its frequency was counted (%). More than 50 spots were examined. bar:10 μm. […] Bar: 10 μm. […] (D) Whole-cell extracts were prepared from HEK293 and stably transfected cells of Cdt2^WT or Cdt2^PIP-3A cells, separated into soluble (Sup) and chromatin-containing insoluble (Ppt) fractions, and were examined for indicated proteins. The asterisk indicates nonspecific bands. (E) HEK293 and stably transfected cells of Cdt2^WT or Cdt2^PIP-3A were treated with MG132 for 3 h. […]
For Western blotting, whole-cell lysates were prepared by lysing cell pellets directly in SDS–PAGE buffer. […] Protein levels were analysed by ImageJ software.
We used a method to induce DNA photoproducts within localized areas of the cell nucleus as described in Ishii et al (2010). […] UV irradiation was achieved using a UV lamp (SUV-16, As One, Japan) with a dose rate of 0.4 J/m^2·s, which was monitored with a UV radiometer (UVX Radiometer, UVP) at 254 nm, or with a UV box equipped with a UV-C lamp monitored with a VLX-3W radiometer (Vilber Lourmat) at 254 nm (CX-254 sensor). […]

Cdt2 poly-ubiquitination = test: Poly-ubiquitination of Cdt2 itself on chromatin in HEK293 cells; conditions: HEK293, MG132 3 h
Description: Figure 6. The Cdt2 PIP box is important for its recruitment to DNA damage sites and replication foci and for poly-ubiquitination activity. (A) HEK293 and stable Cdt2^WT or Cdt2^PIP-3A cells were locally UV irradiated, and stained for XPA and FLAG (Cdt2). XPA-positive spots were examined for FLAG signal, and its frequency was counted (%). More than 50 spots were examined. bar:10 μm. […] Bar: 10 μm. […] (D) Whole-cell extracts were prepared from HEK293 and stably transfected cells of Cdt2^WT or Cdt2^PIP-3A cells, separated into soluble (Sup) and chromatin-containing insoluble (Ppt) fractions, and were examined for indicated proteins. The asterisk indicates nonspecific bands. (E) HEK293 and stably transfected cells of Cdt2^WT or Cdt2^PIP-3A were treated with MG132 for 3 h. Whole-cell extracts (WCE) were prepared, separated into soluble (Sup) and insoluble (Ppt) fractions, and blotted with the indicated antibodies.
To consider this possibility, asynchronously growing control HEK293 cells and cells expressing Cdt2^WT or Cdt2^PIP-3A were treated with proteasome inhibitor MG132 and the levels of poly-ubiquitinated Cdt1 were examined. […] Cdt2^PIP-3A-expressing cells however had reduced level of both poly-ubiquitinated Cdt1 and p21 on chromatin.

| Molecule | interaction with PCNA (reverse IP, anti-Myc) (PCNA) | interaction with PCNA (anti-FLAG IP) (PCNA) | co-precipitation of PCNA and Cdt1 (Cdt1) | mUb-PCNA level (PCNA mono-ubiquitination) | recruitment to UV-irradiated sites [1] | poly-ubiquitination of Cdt2 on chromatin (Cdt2 poly-ubiquitination) |
| --- | --- | --- | --- | --- | --- | --- |
| Cdt2: Cdt2 tagged with GFP, transiently expressed in MCF7 cells | co-precipitated with Myc-PCNA | interact with PCNA | both PCNA and Cdt1 were precipitated, and their amounts were notably increased after UV irradiation | – | – | – |
| B1 | not detected in the precipitates | lost almost entirely | neither Cdt1 nor PCNA co-precipitated well | decreased | not recruited to UV-irradiated sites | severely reduced |
